# Results as given in the nanobody polyreactivity screen of Harvey et al. (2022).
# Assay: yeast display, Sf9 membrane polyspecificity reagent, FACS + sequencing; frameworks hold sequencing errors
# In short: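 Nanobodies came from a synthetic yeast display library in Saccharomyces cerevisiae BJ5465, induced with galactose for 36–48 hours and stained for 1 hour at 4 °C with 10% biotinylated, detergent-solubilized Sf9 membrane reagent. Cells were enriched on streptavidin microbeads and then FACS-sorted, with low and high (top ~1%) gates set on anti-HA fluorescence for expression and streptavidin fluorescence for reagent binding. Each polyreactivity label reflects the gate a clone came from. Genes were amplified by colony PCR, sequenced by MiSeq 2 × 250 and filtered by CDR length.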
sequence,measurement,value
QVQLVESGGGLVQAGGSLRLSWAASGFIFPYNAMGWYRQAPGKERELVAVISSSGGDTYYADSVKGRFTISRDNAKNTVYLQMNSLIPVDTAVYYCAADSYYGYEYWGQGTQVTVSS,polyreactivity (PSR sort gate),low polyreactivity
QDQLVESGGGLVQAGGSLRLSCAASGSIFSNYAMGWYRQAPGKERELVATITSAGSTYYADSVKGRFTISRDNAKNTVYLQLNSLKPEDTAVYYCAALYLGSYDYYDDMDYWGQGTQVTVSS,polyreactivity (PSR sort gate),low polyreactivity
QVQLVESGGGLVQAGGSLRLSCAASGSTFSYNAMGWYRQAPGKERELVAAITSSGSSTYYADSVKGRFTISRYNAKNTVYLQMNSLKPEDTAVYYCAATLYNTEDDYWGQGTQVTVSS,polyreactivity (PSR sort gate),low polyreactivity
QVQLVESGGGLVQAGGSLRLSCAASGRIFWSNAMGWYRQAPGKERELVATISSGGRTYYADSVKGRFTISRDNAKNTVYLQMNSLKPEDTAVYYCNATSGYKHAWRSENGYWGQGTQVTVSS,polyreactivity (PSR sort gate),low polyreactivity
QVQRVESGGGLVQAGGSLRLSCAASGSIYRWNARGWSRQATGKERELVAVINSSGGSTYYADSVKGRFTISRDNAKNTVYLQMNSLKPEDTAVYYCAADLFLECSSQYAPNWWPDGWNTYRLLGGYWGQGTQVTVSS,polyreactivity (PSR sort gate),low polyreactivity
QVQLVESGGGFVQAGGSLRLSCAASGFTFRYYAMGWYRQAPGKERELVAAISRGGNTYYADSVKGRFTMSRDNAKNTVYLQMNSLKPEDTAVYFCNSAYLYIARHGYWGQGTQVTVSS,polyreactivity (PSR sort gate),high polyreactivity
QVQLVESGGGLVQAGGSLRLSCAASGYTVGTYDMGWYRQAPGKERELVAAISIGGSTNYADSVKGRFTMSRDNAKNTVYLQMNSLKPDATAVSYCASEVNVGTLLLSVIVEDGDYWGQGTQVTVSS,polyreactivity (PSR sort gate),low polyreactivity
QVQLVESGGGLVQAGGSLRLSCAASGRIFYLNAMGWYRQAPGKERELVAAITRSAASTHYADSVKGRFTISRDNAKNTVYLQMNSLKPEDTAVYYCAARFWYDYRHYDYWGQGTQVTVSS,polyreactivity (PSR sort gate),low polyreactivity
QVQLVESGGGLVQAGGSLRLICAASGRTLWSNAMGWYRQAPGKEMELFATISRGGGSTSYADSVKGRFTISRYNAKKTVYLQLYSLKPEDTSVYYCNNYPYIQRTWWYDYWGQGTQVTVSS,polyreactivity (PSR sort gate),high polyreactivity
QDQLVESGGGLVQAGGSLRLSCAASGRTFRRNAMGWYRQAPGKERELVAAITWRGTSTYYADSVKGRFTISRDNAKNTVYLQMNSLKPEDTAVYYCAAVVKDSRPYQAYVGSIHRDYWGQGTQVTVSS,polyreactivity (PSR sort gate),high polyreactivity
QVQLVESGGGLVQAGGSLRLSCAASGFTFGVYTMGWYRQAPGKERELVAAITSGGSTHYADSVKGRFTISRDNAKNTVYLQMNSLKPEDTAVYYCAARVRPRPQRIYGYWGQGTQVTVSS,polyreactivity (PSR sort gate),high polyreactivity
QVQLVESGGGLVQAGGSLRLSCAASGFTFLKNAMGWYRQAPGKERELVAAITSSGGRTYYADSVKGRFTISRDNAKYTVYLQMNSLKPEDTAVYYCNKGPLPGYDYWGQGNQVTVSS,polyreactivity (PSR sort gate),high polyreactivity
QVQLVESGGGLVQAGGSLRLSCAASGNIFVTYDMGWYRQAPGKEREMVASISWNGGSTHYADSVKGLFTISGDNAKYSVYLQMNSRKPEDTAVYYCAAEYWTSYADYRYDYWGQGTQVTVSS,polyreactivity (PSR sort gate),low polyreactivity
QVQLVESGGGLVQAGGSLRLSCAASGSTFPGNAMGWYRQSPGKERELVAAISDGVRTSYADSVKGRFTISRDNAKNTVYLQMNSLKPEDTAVYYCNADFARQYDPHVLYITVGMDYWGQGTKVTVSS,polyreactivity (PSR sort gate),low polyreactivity
QVQLVESGGGLVHAGGSLRLSCAASGSTFIRNAMGWYRQAPGKERELVAAISSSGGRTYYADSVKGRITISRDNAKNTVYVQMNSLKPEDTAVYYCAARYVPPWGRRYYYWGQGTQVTVSS,polyreactivity (PSR sort gate),high polyreactivity
QVQLVESGGGLVQAGGSLRLSCAASGSIFGDNAMGWYRQAPGKERELVASITWSGGSTFYADSVKGRFTISRDNAKNTVYLQMNSLKPEDTAVYYCNADYAESPYFYLLLDYWGQGTQVTVSS,polyreactivity (PSR sort gate),low polyreactivity
QVHLVESGGGLVQAGGSLRLSCAASGRIFNSNAMGWYIQEPGKERELAAAISKRGGSTFYADSVKGRFTISRDNGKNTVFLQMKSLKPEYSAVYYCNARRLSTGFDRYDYWGQGTQVTGSS,polyreactivity (PSR sort gate),high polyreactivity
QVQLVESVGGLVQAGGSLRLSCAASGRTFRKYAMGWYRQAQGKERELVASITYSGGSTYYADSVKGRFTISRDNAKNTVYLQMNSLKPEDTAVYYCAARLHWIRYPQTLYDYWGQGTQVTVSS,polyreactivity (PSR sort gate),high polyreactivity
QVQLVESGGGLVQAGGSLRLSCAASGSTLGYYTMGWYRQAPGKERELVAAISGSGVTTSYADSVKGRFTISRDNAKNTVYLQMNSLKPEDTAVYYCARRYRVGTTGGDYWGQGTQVTVSS,polyreactivity (PSR sort gate),high polyreactivity
QVQLVESGGGLVQAGGSLRLSCAATGSTYKYYAMGWYRQAPGKERELVAAITKSGGRTYYSDSVKGRLTISRDNAKNTVYLQMNSLKPEDTAVYYCATVTSHVDDEFDYWGQGTQVTVSS,polyreactivity (PSR sort gate),high polyreactivity
QVQLLDSGGGLVQAGGSLRLSCAASGSIFYLNAMGWYRQAPVKEREFVAAITLRGGSSYYADSVKGRFTISRDYANNTFYLQMKSLKPEDTAFYYCNAGVALTYVHDGDYWGQGTQVTVSS,polyreactivity (PSR sort gate),low polyreactivity
QVQLVESGGGLVQAGGSLRLSCAASGIIFYRNAMGWYRQAPGKERELVAGITSGGSTYYADSVKGRFTISRDNAKNTVYLQMNSLKPEYTAVYYCAAYYRASQRYLQYGYWGQGTQVTVSS,polyreactivity (PSR sort gate),high polyreactivity
QVQLVESGGGLVQAVGSLLLSCAASGSIFRVYAMGWSRQAPGKERELVAAISVSGSSTYYADSVKGRFTISRDNAKNTVYFQMNCLIPEDTAVYYCATKQRRGYWGYITAYARYYWGQGTQVTVSS,polyreactivity (PSR sort gate),high polyreactivity
QVQLVESGGGLVQAGGSLRLSCAASGSTFVYYAMGWYRQAPGKERELVAAITASGGGTYYADSVKGRFTISRDNAKNTVYLQMNSLKPEDTAVYYCNRGYDYWGQGTQVTVSS,polyreactivity (PSR sort gate),low polyreactivity
QVQLVESGGGLVQAGGSLRLSCAASGFIFYAYAMGWSRQAPGKERELVAAISGSGGSTYYADSVKGRFTISRDNAKNTVYLQMNSLKPEDTAVYYCAARSRVSNRSYYYWGQGTQVTVSS,polyreactivity (PSR sort gate),high polyreactivity
QVQLVESGGGLVQAGGSLRLSCAASGGTFRGYAMGWYRQAPGKERELVAAITYSGGRTYYADSVKGRFTISRDNAKNTVYLQMNSLKPEDTAVYYCNAQSSGRLSYRYDYWGQGTQVTVSS,polyreactivity (PSR sort gate),high polyreactivity
QVQLVESGGGLVQAGGSLRLSCAASGRTFSFYAMGLYRQAPGKERELVAAIRSDGGTTYYADSVKGRFTISRVNGKNTVYLQMNSLKPEDTAVYYCNTQSFYFVSFSSSRYLRYYWGQGTQVTVSS,polyreactivity (PSR sort gate),low polyreactivity
QDQLVESGGGLVQAGGSLRLSCAASGFTFQDYAMGWYRPAPGKERELVAAISTSDGNTYYADSVKGRFTISRDNAKNTVYLQMNSLKPEDTAVYYCAAQRNYGWVKFYYWGQGTQVTVSS,polyreactivity (PSR sort gate),high polyreactivity
QVQLVESGGGLVQAGGSLRLSCAASGRIFQEYAMGWYRQAPGKERELVAAISSGGGSTYYADSVKGRFTISRDNAKNTVYLQMNSLKPEDTAVYYCAARVYIAYISMDHWGQGTQVTVSS,polyreactivity (PSR sort gate),low polyreactivity
QVQLVESGGGLVQAGGSLRLSCAASGFTFGNNAMGWYRKAPGKERELVAAISKRGSSTYYADSVKGRFTISRDNAKNTVYLQMNSLKPEDTAVYYCAAEGRRTRYYYWGQGTQVTVSS,polyreactivity (PSR sort gate),high polyreactivity
QVQLVESGGGIVQAGGSLRLSCAASGIIFWNYAMGWYRQAPGKERELVAAITDGGSTYYADSVKGRFTISRDNEKNTVYLQMNSLKPEDNAVYYCNTDWAYLSDYWGQGTQVTVSS,polyreactivity (PSR sort gate),low polyreactivity
